For 1 substance, stoichiometry N results are on record in article PMC3099244.

As a reminder, the stoichiometry N is the number of molecules, sites or subunits per partner or assembly.

In this test the target is TAP-tagged wild-type Dyn1-GFP (cytoplasmic dynein heavy chain) (S. cerevisiae) (UniProt P36022). The test is described as follows: single-molecule stepwise photobleaching.

“TAP-tagged wild-type Dyn1-GFP (cytoplasmic dynein heavy chain), P36022 1-4092” had a stoichiometry N of 2.
